Assay results published in patent publication US20140017242A1, “ANTI-BRADYKININ B2 RECEPTOR (BKB2R) MONOCLONAL ANTIBODY” (Diamedica, Inc., priority 2010, published 2014).

Columns and labels:
ZDF fa/fa rats [1] = assay: 21-day ZDF fa/fa study: serum total cholesterol and triglyceride; format: in vivo, rat; details: day 21
Description: (§1) Animals. Male ZDF fa/fa rats were obtained from CRL (Kingston, N.Y.). Upon arrival, rats were seven weeks of age. The rats were housed individually per cage in a room with a photo cycle of 12 hours of light and 12 hours of dark and an ambient temperature of 70-72° F. and fed on regular rodent diet and water ad libitum. At the age of eleven weeks, rats were divided into six groups (Table 5) of eight rats per group based on fasting blood glucose levels. A sub-group of four rats per group was maintained in parallel to the main groups and was dosed similarly for twenty-one days for a hyperinsulinemic-euglycemic clamp study. […]
(§2) An oral glucose tolerance test (OGTT) was performed on Day 0, 7, 14 and 21 for each group of the study. Plasma samples were collected at each time point during OGTT to also measure insulin levels. Body weight, food and water intake were measured twice a week. Blood pressure and heart rates were monitored on Day 0, 7, 14 and 21 using a non-invasive tail cuff method (with five readings per rat taken and then averaged). Fasting serum samples were collected on Day 0, 7, 14 and 21 before OGTT for determination of triglyceride and total cholesterol level. Urine samples were collected on Day 7 and 14 for the determination of glycosuria. Glycated (Glycosylated) hemoglobin (HbA1c) was measured at the end of the study. Assay kits for these studies were as presented in Table 6, and were used according to the suppliers' instructions.
(§3) The mean change in fasting blood glucose (mg/dL), serum cholesterol (mg/dL) and systolic blood pressure (mm Hg) from baseline (Day 0) to Day 21 was compared between the high-dose (5F12G1, 0.2 mg/kg) and negative control (MG2b-57, 0.2 mg/kg) groups using an analysis of covariance to adjust for baseline levels. The mean HbA1c percentage in high-dose (5F12G1, 0.2 mg/kg) rats was compared to the mean HbA1c percentage for negative control (MG2b-57, 0.2 mg/kg) rats using an unequal-variance, independent two-sample t-test. A significance level of a=0.05 was used for all tests, and all analyses were conducted using SAS statistical software (vs. 9.2, Cary, N.C., U.S.A.).

ZDF fa/fa rats [2] = assay: 21-day ZDF fa/fa study: glycated hemoglobin HbA1c; format: in vivo, rat; details: day 21
Description: as §1, §2
The mean change in fasting blood glucose (mg/dL), serum cholesterol (mg/dL) and systolic blood pressure (mm Hg) from baseline ([…]) and negative control (MG2b-57, 0.2 mg/kg) groups using an analysis of covariance to adjust for baseline levels. […] A significance level of a=0.05 was used for all tests, and all analyses were conducted using SAS statistical software (vs. 9.2, Cary, N.C., U.S.A.).

ZDF fa/fa rats [3] = assay: 21-day ZDF fa/fa study: fasting blood glucose; format: in vivo, rat; details: for fasting blood glucose level: day 21
Description: as §1, §2
Fasting blood glucose levels were measured on Day 0, 7, 14 and 21.
as §3

NUGC-4 = assay: MTT Cell Proliferation Assay, NUGC-4; format: cell-based, human; details: 120 hours of exposure
Description: This Example describes characterization of the cytotoxic activity of herein described anti-BKB2R monoclonal antibodies against a panel of cancer cell lines. BxPC-3 is a human adenocarcinoma cell line originally isolated from the pancreas (pancreatic cancer) (ATCC # CRL-1687; Tan et al., Cancer Invest. 4: 15-23, 1986. PubMed: 3754176). MV-4-11 is a human biphenotypic B myelomonocytic leukemia (mixed-lineage leukemia, MLL-AF4) cell line originally isolated from the peripheral blood (ATCC # CRL-959; Lange et al., Blood 70: 192-199, 1987. PubMed: 3496132). Hep G2 is a human hepatocellular carcinoma cell line isolated from the liver (liver cancer) (ATCC # HB-8065; Aden et al., Nature 282: 615-616, 1979. PubMed: 233137). RS4;11 is a human acute lymphoblastic leukemia (mixed-lineage leukemia, MLL-AF4) cell line isolated from the bone marrow (ATTC # CRL-1873) Stong et al., Blood 65: 21-31, 1985. PubMed: 3917311). HT-29 is a human colorectal adenocarcinoma (ATTC # HTB-38) cell line isolated from the colon (colon cancer). Fogh et al., J. Natl. Cancer Inst. 58: 209-214, 1977. PubMed: 833871). NUGC-4 is a human stomach carcinoma isolated from the stomach paragastiric lymph node (JCRB # JCRB0834; Akiyama et al., Jpn. J. Surg., 18: 438-446, 1988). […]
The anti-proliferative activity of test compounds against the indicated cell lines was evaluated in vitro using the ATCC's MTT Cell Proliferation Assay (Catalog No. 30-1010K). After the 120 hour incubation with drug (e.g., anti-BKB2R mAb or cisplatin), cell proliferation was measured by addition of MTT reagent to each well and incubation for an additional 4 hrs. […] Optical absorbance (570 nm) of the test wells was measured and then quantitated relative to control wells that received no drug. Results were expressed as percent inhibition versus compound concentration and graphed, as shown in FIGS. 19-25, for cell lines BxPC-3, MV-4;11, HepG2, RS-4;11, HT-29, NUGC-4, and PC-3, respectively.

B1: 5F12G1: murine monoclonal anti-BKB2R antibody (IgG2b,κ), VH comprising SEQ ID NO:1, VL comprising SEQ ID NO:2 (antibody, listed as Mus musculus, V domains shown)
VH: EVKLEESGGGLVQPGGSMKLSCVVSGFTFSDYWMSWVRHSPEMGLEWVAEIRLKSDNYATHYAESVKGRFTISRDDSKSRLYLQINSLRGEDTGIYYCTRDYYAMEYWGQGTSVTVSS
VL: DVVMTQTPLSLPVSLGDQASISCRSSQTIVHSNGKTYLEWYLQKPGQSPKLLIYKVSNRFSGVPDRFSGSGSGTEFTLKISRVETEDLGVYYCFQASHVPYTFGGGTKLEIK
serum cholesterol (ZDF fa/fa rats [1]; 0.008 mg/kg s.c. every 3 days): 167 ± 7 mg/dL
serum cholesterol (ZDF fa/fa rats [1]; 0.04 mg/kg s.c. every 3 days): 162 ± 18 mg/dL
decrease of serum cholesterol from baseline (ZDF fa/fa rats [1]; 0.2 mg/kg s.c. every 3 days): 12 ± 8 mg/dL
serum cholesterol (ZDF fa/fa rats [1]; 0.2 mg/kg s.c. every 3 days): 145 ± 26 mg/dL
percent glycosylated hemoglobin A1c (HbA1c) (ZDF fa/fa rats [2]; 0.2 mg/kg s.c. every 3 days (high dose)): 6.3+/−0.5%
difference in percent HbA1c between the high dose and negative control animals (ZDF fa/fa rats [2]; 0.2 mg/kg s.c. every 3 days vs MG2b-57 0.2 mg/kg): −2.58+/−0.85%
increase of fasting blood glucose from baseline (ZDF fa/fa rats [3]; 0.2 mg/kg s.c. every 3 days, Day 0 to Day 21): 33.1 ± 19.7 mg/dL
fasting blood glucose level (ZDF fa/fa rats [3]; 0.2 mg/kg s.c. every 3 days, baseline 117.6+/−14.2 (5F12G1), 116.5+/−25.8 (MG2b-57)): approximately 150.8+/−56.5 mg/dl
fasting blood glucose level (ZDF fa/fa rats [3]; second of three values given respectively (0.04 mg/kg s.c. every 3 days)): ~163 ± 21 mg/dL
fasting blood glucose level (ZDF fa/fa rats [3]; third of three values given respectively (0.008 mg/kg s.c. every 3 days)): ~190 ± 40 mg/dL
EC 50 Values (ng/ml) NUGC-4 (NUGC-4): 47000 ng/mL
